Measurements from article PMC5432123.

Molecular target: microtubules (tubulin)

Binder	in vitro MT gliding assay, speed of MT gliding (n = 25)
UNC-104 (1-371 a.a), truncated version (domain or fragment) MSSVKVAVRVRPFNQREISNTSKCVLQVNGNTTTINGHSINKENFSFNFDHSYWSFARNDPHFITQKQVYEELGVEMLEHAFEGYNVCIFAYGQTGSGKSYTMMGKANDPDEMGIIPRLCNDLFARIDNNNDKDVQYSVEVSYMEIYCERVKDLLNPNSGGNLRVREHPLLGPYVDDLTKMAVCSYHDICNLMDEGNKARTVAATNMNSTSSRSHAVFTIVLTQKRHCADSNLDTEKHSKISLVDLAGSERANSTGAEGQRLKEGANINKSLTTLGLVISKLAEESTKKKKSNKGVIPYRDSVLTWLLRENLGGNSKTAMLAALSPADINFDETLSTLRYADRAKQIVCQAVVNEDPNAKLIRELNEEVIK	1.68 mμ/sec
UNC-104 (1-371 a.a) V6I, truncated version (domain or fragment) MSSVKIAVRVRPFNQREISNTSKCVLQVNGNTTTINGHSINKENFSFNFDHSYWSFARNDPHFITQKQVYEELGVEMLEHAFEGYNVCIFAYGQTGSGKSYTMMGKANDPDEMGIIPRLCNDLFARIDNNNDKDVQYSVEVSYMEIYCERVKDLLNPNSGGNLRVREHPLLGPYVDDLTKMAVCSYHDICNLMDEGNKARTVAATNMNSTSSRSHAVFTIVLTQKRHCADSNLDTEKHSKISLVDLAGSERANSTGAEGQRLKEGANINKSLTTLGLVISKLAEESTKKKKSNKGVIPYRDSVLTWLLRENLGGNSKTAMLAALSPADINFDETLSTLRYADRAKQIVCQAVVNEDPNAKLIRELNEEVIK	1.35 μm/sec
